T1: human ANG2-RBD-Fc (human, UniProt O15123)
T1 chain: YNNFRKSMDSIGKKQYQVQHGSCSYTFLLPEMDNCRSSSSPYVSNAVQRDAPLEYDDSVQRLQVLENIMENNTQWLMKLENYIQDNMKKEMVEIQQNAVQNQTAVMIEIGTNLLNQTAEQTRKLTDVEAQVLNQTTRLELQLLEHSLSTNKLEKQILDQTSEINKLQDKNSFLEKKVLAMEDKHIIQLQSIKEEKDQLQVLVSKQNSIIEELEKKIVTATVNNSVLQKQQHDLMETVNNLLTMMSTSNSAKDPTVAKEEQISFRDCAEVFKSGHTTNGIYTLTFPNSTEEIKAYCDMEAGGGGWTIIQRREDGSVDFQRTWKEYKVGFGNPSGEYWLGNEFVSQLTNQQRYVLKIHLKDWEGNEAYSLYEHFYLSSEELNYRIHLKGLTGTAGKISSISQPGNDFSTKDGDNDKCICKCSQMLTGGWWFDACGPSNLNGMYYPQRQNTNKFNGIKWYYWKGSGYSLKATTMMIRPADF

T2: human ANG2 (human, UniProt O15123)
T2 chain: T1 chain

B1: 0075 (antibody, V domains shown)
VH: not shown
VL: SYVLTQPPSVSVAPGQTARITCGGNNIGSKSVHWYQQKPGQAPVLVVYDTSDRPSGIPERFSGSNSGNTATLTISRVEAGDEADYYCQVWDSSSDHWVFGGGTKLTVLS
B2: 0041 (antibody, V domains shown)
VH: not shown
VL: B1 VL with T50D
B3: 0090 (antibody)
chain 1: not shown
chain 2: SYVLTQPPSVSVAPGQTARITCGGNNIGSKSVHWYQQKPGQAPVLVVYDTSDRPSGIPERFSGSNSGNTATLTISRVEAGDEADYYCQVWDSSSDHWVFGGGTKLTVLSSASTKGPSVFPLAPSSKSTSGGTAALGCLVKDYFPEPVTVSWNSGALTSGVHTFPAVLQSSGLYSLSSVVTVPSSSLGTQTYICNVNHKPSNTKVDKKVEPKSC
B4: 0099 (antibody, V domains shown)
VH: not shown
VL: B1 VL with T50D
B5: 0101 (antibody, V domains shown)
VH: not shown
VL: B1 VL
B6: 0100 (antibody)
chain 1: not shown
chain 2: B3 chain 2
B7: 0033 (antibody, V domains shown)
VH: not shown
VL: B1 VL with T50D
B8: 0028 (antibody, V domains shown)
VH: not shown
VL: B1 VL with T50D
B9: 0027 (antibody, V domains shown)
VH: not shown
VL: B1 VL with T50D
B10: 0057 (antibody, V domains shown)
VH: not shown
VL: B1 VL with T50D
B11: 0061 (antibody, V domains shown)
VH: not shown
VL: B1 VL
B12: 0042 (antibody, V domains shown)
VH: not shown
VL: B1 VL with T50D
B13: 0040 (antibody, V domains shown)
VH: not shown
VL: B1 VL with T50D
B14: 0058 (antibody, V domains shown)
VH: not shown
VL: B1 VL with T50D
B15: 0060 (antibody, V domains shown)
VH: not shown
VL: B1 VL
B16: 0074 (antibody, V domains shown)
VH: not shown
VL: B1 VL with T50D
B17: 0163 ANG2 arm (antibody, V domains shown)
VH: not shown
VL: B1 VL with S1Q, Y2P, V3G, W97Y, G101T, L105V
B18: 0164 ANG2 arm (antibody, V domains shown)
VH: not shown
VL: B1 VL with S1Q, Y2P, V3G, W97Y, G101T, L105V
B19: 0166 ANG2 arm (antibody, V domains shown)
VH: not shown
VL: B1 VL
B20: 0165 ANG2 arm (antibody)
chain 1: not shown
chain 2: B3 chain 2
B21: 0017 (antibody, V domains shown)
VH: not shown
VL: B1 VL with T50D
B22: 0026 (antibody, V domains shown)
VH: not shown
VL: B1 VL with T50D
B23: 0025 (antibody, V domains shown)
VH: not shown
VL: B1 VL with T50D
B24: 0156 (antibody, V domains shown)
VH: not shown
VL: B1 VL with S1Q, Y2P, V3G, W97Y, G101T, L105V
B25: 0155 (antibody, V domains shown)
VH: not shown
VL: B1 VL with S1Q, Y2P, V3G, W97Y, G101T, L105V

Where a chain is given by its changes, count along the chain named.

In the first assay the target is T1, human ANG2-RBD-Fc. Kind of assay: SPR. For orientation: SPR reads the build-up and loss of mass on a sensor chip optically.
For the molecule B1, the Kd stood at 14 nM.

The molecule B2 had a Kd of 1 nM.

For B3, the Kd worked out at 1 nM.

Another assay addresses T1, human ANG2-RBD-Fc. The assay can be described thus: SPR bivalent.
B4: the Kd is 0.004 nM.

B5 returned a Kd of 0.007 nM.

Molecule B6 returned a Kd of 0.008 nM.

A further assay addresses T1, human ANG2-RBD-Fc. The assay can be described thus: SPR bivalent. The source holds these as a separate data set.
B4: the Kd stood at 0.004 nM.

B5 returned a Kd of 0.007 nM.

B6: the Kd stood at 0.008 nM.

A further assay addresses T1, human ANG2-RBD-Fc. The assay can be described thus: SPR. This is another data set of the same source.
On to B7, for which the Kd was found to be 3 nM.

In turn, B8 registered a Kd of 143 nM.

Consider B9, for which the Kd was found to be 69 nM.

The next assay concerns the target T2, human ANG2. The assay can be described thus: competition, Tie2 binding inhibition (pTie2 ELISA).
A word on the EC50: it is the concentration giving half of the maximal effect. Read a high EC50 as weaker potency. Take B1: the EC50 turned out to be 39 nM.

Regarding B3, the EC50 turned out to be 7 nM.

The target of another assay is T1, human ANG2-RBD-Fc. Kind of assay: SPR. This is another data set of the same source.
B2 returned a Kd of 1 nM.

On to B10, for which the Kd amounted to 29 nM.

B11 had a Kd of 18 nM.

Consider B12, for which the Kd was determined as 4 nM.

B13 had a Kd of 23 nM.

Consider B14, for which the Kd is 21 nM.

The molecule B15 showed a Kd of 21 nM.

Another assay addresses T1, human ANG2-RBD-Fc. Kind of assay: SPR. This is another data set of the same source.
The molecule B1 registered a Kd of 14 nM.

On to B16, for which the Kd is 16 nM.

In the case of B3, the Kd is 1 nM.

The target in the next assay is T2, human ANG2. Kind of assay: competition, Tie2 binding inhibition (pTie2 ELISA). The source holds these as a separate data set. (In an ELISA, binding on a coated surface is turned into a signal by an enzyme label.)
B2: a half-maximal effect (EC50) was put at 5.4 nM.

In the next assay the target is T1, human ANG2-RBD-Fc. The assay can be described thus: SPR. This is another data set of the same source.
Molecule B17 gave a Kd of 4 nM.

B18 yielded a Kd of 39 nM.

B19 had a Kd of 49 nM.

Molecule B20 had a Kd of 4 nM.

A further assay addresses T2, human ANG2. Kind of assay: competition, Tie2 binding inhibition (pTie2 ELISA). This is another data set of the same source.
B4 displayed an EC50 of 3.2 nM.

Molecule B5 returned an EC50 of 3 nM.

For B6, the EC50 is 3.2 nM.

The target of the next assay is T1, human ANG2-RBD-Fc. The assay can be described thus: SPR. The source holds these as a separate data set.
Molecule B21 displayed a Kd of 12 nM.

Molecule B22 registered a Kd of 18 nM.

B23 displayed a Kd of 38 nM.

Another assay deals with T1, human ANG2-RBD-Fc. The assay can be described thus: SPR. The source holds these as a separate data set.
Consider B24, for which the Kd is 5 nM.

Consider B25, for which the Kd worked out at 43 nM.

For the origin of these results see patent US10538585 (dated 2020).
